Our source for the screen value values is publication doi:10.1101/2025.05.16.654433.

B1: APE-1::GFP::3xflag (endogenous APE-1 tagged with 3xflag and GFP) [C. elegans] / HaloTag::GSP-2 (endogenously HaloTagged GSP-2 labeled with JF646) [modified: far-red dye JF646 on the HaloTag; far-red dye JF646 on the HaloTag] … (parent)
chain 1: MVTTSSGGGIGYPANNGVTQVSLIHSSDSVRTVSTAPIYRPTSSMASTMAHKSSTAPFISANQRMSKPPVRVVAQPPPPHPQALSQQYHQQNPMMMYSAPNTRPHVIPTMQVQPTMAAQIKRNNPVNAQFQNPSEMIADYGVKPQSVEMVQRVRAVRRQVADEETELRRLRELEHETAQLQNKNYGRERELNVQGSMLKEAQLELRNASMRAQSLNKHLEEMYRRRQTAAAAALVEQRKMQQHQILLARAANQVSTQEVIRPRASVEPFQVNNTQQQQPSPQMMKSEEFSEKRDLNGQTGSYDAIDGSGDHQKIPTEPSYLAPCKENQQKYSELSKMASTDPHSNHSSPSTSSQKAPTLITFSPPSFEQKINSSTMTRDSPFVERPTSFGDSLDESRLRSGKTDLVSLRSDSLKATKRRSWAASEGTSMSEAEMIHRLLDEQRRGRSHFIPQLPTSQEEPSAITSETYAEEVVNSESKQVATSSDSTNNLELPTEQMVLGSDTTTEEDASSCSTRSDDGQNLEMEVAIERRTVKGILRRPNEKMNKGRIEFDPLALLLDAALEGELDLVRSSASKLTDVSQANDEGITALHNAICAGHYEIVRFLIENDADVNAQDSDGWTPLHCAASCNNLPMVRQLVEGGGCVLASTLSDMETPVEKCEEDEDGYDGCLKYLSAAHNSTGSINTGKVYAAYGYEAAFEDELSFDAGDELTVIEKDKVDKNWWTCEKNNGEKGQVPRTYLALYPSLKYRKKLNFVMFDLPLESNNNVE
chain 2: MDVEKLNLDNIISRLLEVRGSKPGKNVQLTESEIKGLCQKSREIFLSQPILLELEAPLKICGDVHGQYYDLLRLFEYGGFPPESNYLFLGDYVDRGKQSLETICLLLAYKIKYPENFFLLRGNHECASINRIYGFYDECKRRYNIKLWKTFTDCFNCLPVAAIIDEKIFCCHGGLSPDLQSMEQIRRIMRPTDVPDQGLLCDLLWSDPDKDVTGWGENDRGVSFTFGPEVVAKFLHKHDLDLICRAHQVVEDGYEFFAKRQLVTLFSAPNYCGEFDNAGSMMTVDETLMCSFQILKPADKKKYPYGAGGVGSNRPVTPPRNAPAAQPKKGAKK

In one experiment the parent is B1. The experiment in a line: single molecule photobleaching analysis (TIRF microscopy) on anti-flag functionalized coverslips. As to conditions: with HaloTag::GSP-2 (endogenously HaloTagged GSP-2 labeled with JF646) [modified: far-red dye JF646 on the HaloTag, whole worm lysates, HaloTag::GSP-2 labeled with JF646, p = 0.008 vs APE-1, read off a plot.
Regarding chain 1 N583K, the screen value was 34%.

The experiment is the same for the next values; noted with them: with HaloTag::GSP-2 (endogenously HaloTagged GSP-2 labeled with JF646) [modified: far-red dye JF646 on the HaloTag, whole worm lysates, HaloTag::GSP-2 labeled with JF646, p=0.531 vs APE-1, read off a plot.
chain 1 H591Y: the screen value turned out to be 38%.
